Source: the DeepSol protein solubility set

Experiment: soluble on expression in E. coli; label from the status in PepcDB or PDB records

Row | Sequence | soluble on expression in E. coli
1 | MPSDSTSNIDTTQRQSADLMAEGFGAGVNAPFLVIVDTHEVNADSTALQPLIEAQEPEEGEFDREQAARFATYMYVTQTYNSNIDVKNAQIISVNDDFTAAQILVTPYTGPADKETPELMHVLRAQEAQIEDVTGTELGTTGFTAVQLDITEQLEDAMPVYLEHHHHHH | not soluble
2 | MPSPSPKGLPVKQYAVQSQLPVYEWPDVGSGEYDVGVVASFGRLLNEALILKFPYGILNVHPSCLPRWRGPAPVIHTVLHGDTVTGVTIMQIRPKRFDVGPILKQETVPVPPKSTAKELEAVLSRLGANMLISVLKNLPESLSNGRQQPMEGATYAPKISAGTSCIKWEEQTSEQIFRLYRAIGNIIPLQTLWMANTIKLLDLVEVNSSVLADPKLTGQALIPGSVIYHKQSQILLVYCKDGWIGVRSVMLKKSLTATDFYNGYLHPWYQKNSQAQPSQCRFQTLRLPTKKKQKKTVAMQQCIE | soluble
3 | MPSVESFELDHNAVVAPYVRHCGVHKVGTDGVVNKFDIRFCQPNKQAMKPDTIHTLEHLLAFTIRSHAEKYDHFDIIDISPMGCQTGYYLVVSGETTSAEIVDLLEDTMKEAVEITEIPAANEKQCGQAKLHDLEGAKRLMRFWLSQDKEELLKVFG | soluble
4 | MPTLRPESPEEVQEAVRAYPRLRAQGGGTKPALSTPKEGEVLLDLSRLRGLLAYEPEEFVFTAFAGTPIAEVEEALRAHGQYLPFDPPLAGKGATLGGTVAAGLSGPLRHRYGGLRDFLLGVRFVDGEGKVVRGGGKVVKNAAGFPFHRLMVGALGAFGVMVELSFKVFPRPRTTRTLRVRREGLEEALADLERLRLLPLDLLALDFIPPATLELRLGGFERSVEARLKRLQDLLGEGEVLAEDEAHWEAVRDLGFLEGSPVWVKVPAKPHLIPRLEALPLGPRRYLDGGEVLYAGTTEEGLKALREAGLPHLVLRGAEAPLFPEPQGAFFAGVKKALDPKGRFPLG | soluble
5 | MPTVQTIYSLEKAPEATKDKEPLVVYATSVDWKWVFSYPEQDIETVNYLNIPVDRPILCKISSADSMASLWIPQLGGQKYAMAGMLMDQYLQADKVGTYEGRNANFTGEHFADQEFDVNAVTEKDFNSWVKKTQNEAPKLTKEKYDELMLPENVDELTFSSTHLKYVDHGQDAEYAMEARKRLGYQAVSPHCKTDPFENVKKNEFKKSDDTEE | not soluble
6 | MPTYKLTYFDGRGLAEPARMLFHLGGVPFEDSRIPVDMKTGLIMNPELADVKKKAPFGKYPVLKIDDIEIAQSAAINRYLARQFGFAGKNPIEEAQADSYIDQCQEYNTSFRACMYATLQGKPEEEVQKIREEVYIPAQNKFYEIFSDILNRNKSGFLVGDSLTWADLVIADHLYSLDTMGMLTHEDAWRCETLKKFQEKIYEHPLLKGYIASRPKGAF | not soluble
7 | MPVDQSRQYLRIRDQLAADIAQGVLQVKLPSERELAERFLCTRITLREALQQLETEGLVYRENRRGWFVAPPRIRYNPTRTTGFMEYVSAQGRQPRTETLHAERRAAGAWLAKRMGLEDSAPVYFLQRRRWVDERPVLIELIALDAGWCPGLLDHDLDTSLMSLLRERFGLQPTRCQLAMHPTALNAAQAEPLQLAPGSPALYLERLSYAEGQRVVEFDQEFWRPDALEIVLDAAYPGA | not soluble
8 | MPVFHTRTIESILEPVAQQISHLVIMHEEGEVDGKAIPDLTAPVAAVQAAVSNLVRVGKETVQTTEDQILKRDMPPAFIKVENACTKLVQAAQMLQSDPYSVPARDYLIDGSRGILSGTSDLLLTFDEAEVRKIIRVCKGILEYLTVAEVVETMEDLVTYTKNLGPGMTKMAKMIDERQQELTHQEHRVMLVNSMNTVKELLPVLISAMKIFVTTKNSKNQGIEEALKNRNFTVEKMSAEINEIIRVLQLTSWDEDAWASKDTEAMKRALASIDSKLNQAKGWLRDPSASPGDAGEQAIRQILDEAGKVGELCAGKERREILGTCKMLGQMTDQVADLRARGQGSSPVAMQKAQQVSQGLDVLTAKVENAARKLEAMTNSKQSIAKKIDAAQNWLADPNGGPEGEEQIRGALAEARKIAELCDDPKERDDILRSLGEISALTSKLADLRRQGKGDSPEARALAKQVATALQNLQTKTNRAVANSRPAKAAVHLEGKIEQAQRWIDNPTVDDRGVGQAAIRGLVAEGHRLANVMMGPYRQDLLAKCDRVDQLTAQLADLAARGEGESPQARALASQLQDSLKDLKARMQEAMTQEVSDVFSDTTTPIKLLAVAATAPPDAPNREEVFDERAANFENHSGKLGATAEKAAAVGTANKSTVEGIQASVKTARELTPQVVSAARILLRNPGNQAAYEHFETMKNQWIDNVEKMTGLVDEAIDTKSLLDASEEAIKKDLDKCKVAMANIQPQMLVAGATSIARRANRILLVAKREVENSEDPKFREAVKAASDELSKTISPMVMDAKAVAGNISDPGLQKSFLDSGYRILGAVAKVREAFQPQEPDFPPPPPDLEQLRLTDELAPPKPPLPEGEVPPPRPPPPEEKDEEFPEQKAGEVINQPMMMAARQLHDEARKWSSKGNDIIAAAKRMALLMAEMSRLVRGGSGTKRALIQCAKDIAKASDEVTRLAKEVAKQCTDKRIRTNLLQVCERIPTISTQLKILSTVKATMLGRTNISDEESEQATEMLVHNAQNLMQSVKETVREAEAASIKIRTDAGFTLRWVRKTPWYQ | soluble
9 | MPVILNFSSERVLSESELEALRHVGRVSQSEQLVVRGRTMRLHHISFMDSFSVEPVSGGLLDRLSARGHRLLAENLEIQLNRGHTFLQAFRLYMEQSRATPCTRQNVSSAIQNKINSHAFTVSHQDFSCHEQHLNCPITLCIPETGVFVRNAKNSEICSLYDHNALTELIRRNAPHPLSREPFVPEMIVSKDECHFNLIEQYFCILATQNICTRI | not soluble
10 | MPVMSLIEQYEAAIYRGEIDSDPEQREILEHMQRLAEDLQKKSDSWFPWRKKHPIKGLYIYGPVGVGKTYLVDLFYQHIDEEKKARFHFHHFMQQIDAQLRRLQGKKNPLQYIAKEMAKSIRLLCFDEFLVHDVAYAMILAELLQALHHYGVVLVVSSNTRPDELYLNGVHRERFIPAIEIIKKNCEVLNLNQKRDYRLGRQPLLEAYLYPLNEQTQEAMEKQFALITREEDCKGFITVQNRDIPYIKYGTRSIWFAFDVICNFPRSQLDYLEIADRFDNVFLSDVYQLTESHTAQAIMFIHFIDVMYDRGIKLIISADVPAEELYVKGEMKETFKRTLSRLIEMQSVDYLSRHPRRLVKEMLLEHHHHHH | not soluble
11 | MPVSSRRCGMITRREAERLCKSFLGDNTPPRLPDDFAFNVQHKCAWGCRGSFLPSRYNSSRAKCIKCSYCGMFFSPNKFIFHSHRITTNDRYVQPDAANFNSWRRHMSLSGNDYDEKIIHAWEDVKAMFNGGTRKRLVGSSINPRSPGSPTQSTAVSSGVGSSSCGSPTSFERDTNEVDGKSGSSLPQRSQIDSQYNYGTVAAAAAVVGVTAVAAATELCSGLHVAAEGPTLSAALRKKNPLEHHHHHH | not soluble
12 | MPVVYKRILLKLSGEALMGDGHYGIDRAVVEHIVVEVAGVLQLGVEVAIVVGGGNIFRGMKSAGDGMDRVTADYMGMLATTMNALALHDAMRRNGVVSRVQSALRIDQVVEPYVRGKALRYLDERKVVVFAAGTGNPFFTTDTAAALRGMEMNANIVLKATKVDGIYTSDPLKNKDAQRFQSLTFDEAISKNLQVMDATALTLCRDQKLPINVFSIFKTGALKRVIMGEDEGTSVFV | not soluble
